Results as given in patent publication US20030073199A1 (SCHERING, published 2003).

Key:
[1] = molecular target: T1, AK155 receptor complex (α-subunit CPNM1 / IL-20Rα and β-subunit IL-10Rβ), endogenous on cell lines (UniProt Q9UHF4 30-553; Q08334 20-325, limits assumed); test: cell-based or functional assay
T1 sequence (looked up) 1: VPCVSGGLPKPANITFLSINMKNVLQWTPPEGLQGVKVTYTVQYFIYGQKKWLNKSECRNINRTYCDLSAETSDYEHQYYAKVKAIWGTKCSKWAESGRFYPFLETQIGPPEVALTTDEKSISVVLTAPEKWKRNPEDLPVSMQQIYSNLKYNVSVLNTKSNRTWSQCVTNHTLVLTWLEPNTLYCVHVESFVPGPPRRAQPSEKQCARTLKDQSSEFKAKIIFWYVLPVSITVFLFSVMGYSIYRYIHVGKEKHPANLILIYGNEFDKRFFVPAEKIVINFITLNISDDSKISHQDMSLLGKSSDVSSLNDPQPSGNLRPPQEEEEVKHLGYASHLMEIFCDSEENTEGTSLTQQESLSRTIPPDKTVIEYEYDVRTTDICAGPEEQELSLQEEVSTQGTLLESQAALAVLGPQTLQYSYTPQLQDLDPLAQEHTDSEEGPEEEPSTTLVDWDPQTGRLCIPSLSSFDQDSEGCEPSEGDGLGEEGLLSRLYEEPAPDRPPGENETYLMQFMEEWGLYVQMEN
T1 sequence (looked up) 2: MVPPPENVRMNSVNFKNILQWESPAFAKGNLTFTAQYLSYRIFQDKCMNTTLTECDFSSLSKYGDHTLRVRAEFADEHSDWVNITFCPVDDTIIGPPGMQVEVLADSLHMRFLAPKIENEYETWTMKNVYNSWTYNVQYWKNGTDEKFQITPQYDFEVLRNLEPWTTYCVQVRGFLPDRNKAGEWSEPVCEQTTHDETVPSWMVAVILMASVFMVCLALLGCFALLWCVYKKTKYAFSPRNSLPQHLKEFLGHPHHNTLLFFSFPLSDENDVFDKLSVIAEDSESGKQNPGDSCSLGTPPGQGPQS

[2] = molecular target: the molecule itself; test: SDS-PAGE and western blot of COS-7 cell extracts with and without denaturation (about 36 kDa against about 19 kDa)
Description: Further evidence for the dimeric state of AK155 was provided by analysis of AK155 extracted from mammalian cells. AK155 was cloned and expressed using the eukaryotic expression vector pME18S in COS-7 cells, where the protein was cloned with a FLAG sequence. The cells were extracted and the extracted protein was loaded as is, or heated with reductant, prior to loading on the electrophoresis gel. AK155 was not purified prior to analysis by SDS PAGE. Detection was by rabbit antiserum prepared against AK155 or by anti-FLAG monoclonal antibody.

B1: AK155 (preparation not stated) (ligand)
chain: KHKQSSFTKSCYPRGTLSQAVDALYIKAAWLKATIPEDRIKNIRLLKKKTKKQFMKNCQFQEQLLSFFMEDVFGQLQLQGCKKIRFVEDFHSLRQKLSHCISCASSAREMKSITRMKRIFYRIGNKGIYKAISELDILLSWIKKLLESSQ
- fold increase of IL-8 concentration, HaCaT cells, with against without AK155 [1]: 5 fold

B2: AK155 cloned with a FLAG sequence, expressed in COS-7 cells from pME18S (ligand, not shown: small tags and cut ends)
chain: B1 chain
notes: Analysed unpurified in COS-7 cell extracts; also called FLAG-tagged AK155
- binding result [2]: binds
